What was measured:
[1] = target: SdgB glycosylated SdrC4 protein (UniProt O86487 51-910); test: SPR
[2] = target: LukE, recombinant polyhistidine-tagged variant; test: SPR

B1: mAb 5133 PRASA A6 HC-L4-E (Table 1 Construct 15) (bispecific antibody)
heavy: EVQLVETGGGLVKPGGSLRLSCSASRFSFRDYYMTWIRQAPGKGPEWVSHISGSGSTIYYADSVRGRFTISRDNAKSSLYLQMDSLQADDTAVYYCARGGRATSYYWVHWGPGTLVTVSSASTKGPSVFPLAPSSKSTSGGTAALGCLVKDYFPEPVTVSWNSGALTSGVHTFPAVLQSSGLYSLSSVVTVPSSSLGTQTYICNVNHKPSNTKVDKKVEPKSCDKTHTCPPCPAPPVAGPDVFLFPPKPKDTLMISRTPEVTCVVVDVSHEDPEVKFNWYVDGVEVHNAKTKPREEQYNSTYRVVSVLTVLHQDWLNGKEYKCKVSNAALPAPIAKTISKAKGQPREPQVYTLPPSRDELTKNQVSLTCLVKGFYPSDIAVEWESNGQPENNYKTTPPVLDSDGSFFLYSKLTVDKSRWQQGNVFSCSVMHEALHNRFTQKSLSLSPGKGGGGSGGGGSGGGGSGGGGSMLPAPKNLVVSRVTEDSARLSWTAPDAAFDSFHIEYAEPWVWGEAIVLTVPGSERSYDLTGLKPGTEYVVFIGGVKGGHNSTPLSAIFTT
light: EIVLTQSPATLSLSPGERATLSCRASQSVSGYLGWYQQKPGQAPRLLIYGASSRATGIPDRFSGSGSGTDFTLTISRLEPEDFAVYYCQQYGSSPLTFGGGTKLEIKRTVAAPSVFIFPPSDEQLKSGTASVVCLLNNFYPREAKVQWKVDNALQSGNSQESVTEQDSKDSTYSLSSTLTLSKADYEKHKVYACEVTHQGLSSPVTKSFNRGEC
- Kd [1]: 0.63 nM
- Kd [2]: 0.88 nM

B2: mAb 5133 PRASA A6 HC-L4-E-L4-AB (Table 1 Construct 11) (bispecific antibody)
heavy: EVQLVETGGGLVKPGGSLRLSCSASRFSFRDYYMTWIRQAPGKGPEWVSHISGSGSTIYYADSVRGRFTISRDNAKSSLYLQMDSLQADDTAVYYCARGGRATSYYWVHWGPGTLVTVSSASTKGPSVFPLAPSSKSTSGGTAALGCLVKDYFPEPVTVSWNSGALTSGVHTFPAVLQSSGLYSLSSVVTVPSSSLGTQTYICNVNHKPSNTKVDKKVEPKSCDKTHTCPPCPAPPVAGPDVFLFPPKPKDTLMISRTPEVTCVVVDVSHEDPEVKFNWYVDGVEVHNAKTKPREEQYNSTYRVVSVLTVLHQDWLNGKEYKCKVSNAALPAPIAKTISKAKGQPREPQVYTLPPSRDELTKNQVSLTCLVKGFYPSDIAVEWESNGQPENNYKTTPPVLDSDGSFFLYSKLTVDKSRWQQGNVFSCSVMHEALHNRFTQKSLSLSPGKGGGGSGGGGSGGGGSGGGGSMLPAPKNLVVSRVTEDSARLSWTAPDAAFDSFHIEYAEPWVWGEAIVLTVPGSERSYDLTGLKPGTEYVVFIGGVKGGHNSTPLSAIFTTGGGGSGGGGSGGGGSGGGGSMLPAPKNLVVSRVTEDSARLSWTAPDAAFDSFWITYEEKFYRGEAIVLTVPGSERSYDLTGLKPGTEYKVWIVGVKGGQGSWPLSAIFTT
light: EIVLTQSPATLSLSPGERATLSCRASQSVSGYLGWYQQKPGQAPRLLIYGASSRATGIPDRFSGSGSGTDFTLTISRLEPEDFAVYYCQQYGSSPLTFGGGTKLEIKRTVAAPSVFIFPPSDEQLKSGTASVVCLLNNFYPREAKVQWKVDNALQSGNSQESVTEQDSKDSTYSLSSTLTLSKADYEKHKVYACEVTHQGLSSPVTKSFNRGEC
- Kd [1]: 0.91 nM
- Kd [2]: 1.01 nM
